# Settings: Bos taurus, Thermal, DSC, glycine 0.04 M, reversible: yes(>90%)
# Cytochrome c wild type, P62894, sequence (P62894 whole entry): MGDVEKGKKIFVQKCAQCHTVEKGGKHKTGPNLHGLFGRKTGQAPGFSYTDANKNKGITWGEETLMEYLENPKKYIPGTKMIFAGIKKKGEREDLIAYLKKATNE
substance,measurement,setting,value
"Cytochrome c wild type, P62894",Tm,pH 2.81,52.5 °C
same,unfolding enthalpy (calorimetric),pH 2.81,60 kcal/mol
same,Tm,pH 2.92,54 °C
same,heat capacity change of unfolding,pH 2.92,1.43 kcal/mol/K
same,unfolding enthalpy (calorimetric),pH 2.92,65 kcal/mol
same,Tm,pH 3.05,59 °C
same,heat capacity change of unfolding,pH 3.05,1.48 kcal/mol/K
same,unfolding enthalpy (calorimetric),pH 3.05,70.3 kcal/mol
same,Tm,pH 3.12,61 °C
same,heat capacity change of unfolding,pH 3.12,1.53 kcal/mol/K
same,unfolding enthalpy (calorimetric),pH 3.12,74.3 kcal/mol
same,Tm,pH 3.18,62 °C
same,heat capacity change of unfolding,pH 3.18,1.36 kcal/mol/K
same,unfolding enthalpy (calorimetric),pH 3.18,77 kcal/mol
same,Tm,pH 3.4,66 °C
same,heat capacity change of unfolding,pH 3.4,1.48 kcal/mol/K
same,unfolding enthalpy (calorimetric),pH 3.4,84.6 kcal/mol
same,Tm,pH 3.75,70 °C
same,heat capacity change of unfolding,pH 3.75,1.7 kcal/mol/K
same,unfolding enthalpy (calorimetric),pH 3.75,93.5 kcal/mol
same,Tm,pH 3.94,72 °C
same,heat capacity change of unfolding,pH 3.94,1.65 kcal/mol/K
same,unfolding enthalpy (calorimetric),pH 3.94,96.3 kcal/mol
same,Tm,pH 4.52,77 °C
same,heat capacity change of unfolding,pH 4.52,1.48 kcal/mol/K
same,unfolding enthalpy (calorimetric),pH 4.52,103 kcal/mol
same,Tm,pH 4.83,78 °C
same,heat capacity change of unfolding,pH 4.83,1.53 kcal/mol/K
same,unfolding enthalpy (calorimetric),pH 4.83,107 kcal/mol

# From FireProtDB (doi:10.1016/0022-2836(74)90188-0)
